Source: patent US20260055205A1 (published 2026)
Residue numbers refer to the chain shown, from its start. Names and notes keep the numbering of the source.

B1: CD3.56 (bispecific antibody, V domains shown)
VH: EVQLLESGGGIVQPGGSLKLSCAASGFTFNTYAMNWVRQAPGKGLEWVARTRSKYNNYATYYADSVKDRFTISRDDSKNTVYLQMNNLKTEDTAVYYCVRHENFGNSYVSWFAHWGQGTLVTVSS
VL: ELVVTQEPSLTVSPGGTVTLTCRSSNGAVTSSNYANWVQQKPGQAPRGLIGGTNKRAPGTPARFSGSLLGGKAALTLSGVQPEDEAVYYCALWYPNLWVFGGGTKLTVL
notes: paTCE with PSMA.5; also called AC3385; I51T
B2: CD3.60 (bispecific antibody, V domains shown)
VH: B1 VH with T51I, R52Q
VL: B1 VL
notes: paTCE with PSMA.5; also called AC3389; R52Q
B3: CD3.67 (bispecific antibody, V domains shown)
VH: B1 VH with T51I, S53T
VL: B1 VL
notes: paTCE with PSMA.5; also called AC3396; S52aT
B4: CD3.68 (bispecific antibody, V domains shown)
VH: B1 VH with T51I, K54P
VL: B1 VL
notes: paTCE with PSMA.5; also called AC3397; K52bP
B5: CD3.69 (bispecific antibody, V domains shown)
VH: B1 VH with T51I, Y55A
VL: B1 VL
notes: paTCE with PSMA.5; also called AC3398; Y52cA
B6: CD3.70 (bispecific antibody, V domains shown)
VH: B1 VH with T51I, Y55R
VL: B1 VL
notes: paTCE with PSMA.5; also called AC3399; Y52cR
B7: CD3.71 (bispecific antibody, V domains shown)
VH: B1 VH with T51I, Y55G
VL: B1 VL
notes: paTCE with PSMA.5; also called AC3400; Y52cG
B8: CD3.72 (bispecific antibody, V domains shown)
VH: B1 VH with T51I, Y55K
VL: B1 VL
notes: paTCE with PSMA.5; also called AC3401; Y52cK
B9: CD3.73 (bispecific antibody, V domains shown)
VH: B1 VH with T51I, Y55P
VL: B1 VL
notes: paTCE with PSMA.5; also called AC3402; Y52cP
B10: CD3.74 (bispecific antibody, V domains shown)
VH: B1 VH with T51I, Y55T
VL: B1 VL
notes: paTCE with PSMA.5; also called AC3403; Y52cT
B11: CD3.75 (bispecific antibody, V domains shown)
VH: B1 VH with T51I, Y55W
VL: B1 VL
notes: paTCE with PSMA.5; also called AC3404; Y52cW
B12: CD3.77 (bispecific antibody, V domains shown)
VH: B1 VH with T51I, N56E
VL: B1 VL
notes: paTCE with PSMA.5; also called AC3406; N53E
B13: CD3.78 (bispecific antibody, V domains shown)
VH: B1 VH with T51I, N57D
VL: B1 VL
notes: paTCE with PSMA.5; also called AC3407; N54D
B14: CD3.79 (bispecific antibody, V domains shown)
VH: B1 VH with T51I, N57E
VL: B1 VL
notes: paTCE with PSMA.5; also called AC3408; N54E
B15: CD3.80 (bispecific antibody, V domains shown)
VH: B1 VH with T51I, Y58G
VL: B1 VL
notes: paTCE with PSMA.5; also called AC3409; Y55G
B16: CD3.81 (bispecific antibody, V domains shown)
VH: B1 VH with T51I, Y58F
VL: B1 VL
notes: paTCE with PSMA.5; also called AC3410; Y55F
B17: CD3.82 (bispecific antibody, V domains shown)
VH: B1 VH with T51I, Y58W
VL: B1 VL
notes: paTCE with PSMA.5; also called AC3411; Y55W
B18: CD3.83 (bispecific antibody, V domains shown)
VH: B1 VH with T51I, A59G
VL: B1 VL
notes: paTCE with PSMA.5; also called AC3412; A56G
B19: CD3.84 (bispecific antibody, V domains shown)
VH: B1 VH with T51I, A59T
VL: B1 VL
notes: paTCE with PSMA.5; also called AC3413; A56T
B20: CD3.85 (bispecific antibody, V domains shown)
VH: B1 VH with T51I, Y61D
VL: B1 VL
notes: paTCE with PSMA.5; also called AC3414; Y58D
B21: CD3.86 (bispecific antibody, V domains shown)
VH: B1 VH with T51I, Y61E
VL: B1 VL
notes: paTCE with PSMA.5; also called AC3415; Y58E
B22: CD3.87 (bispecific antibody, V domains shown)
VH: B1 VH with T51I, Y61T
VL: B1 VL
notes: paTCE with PSMA.5; also called AC3416; Y58T
B23: CD3.88 (bispecific antibody, V domains shown)
VH: B1 VH with T51I, Y62D
VL: B1 VL
notes: paTCE with PSMA.5; also called AC3417; Y59D
B24: CD3.89 (bispecific antibody, V domains shown)
VH: B1 VH with T51I, Y62E
VL: B1 VL
notes: paTCE with PSMA.5; also called AC3418; Y59E
B25: CD3.90 (bispecific antibody, V domains shown)
VH: B1 VH with T51I, Y62Q
VL: B1 VL
notes: paTCE with PSMA.5; also called AC3419; Y59Q
B26: CD3.91 (bispecific antibody, V domains shown)
VH: B1 VH with T51I, Y62G
VL: B1 VL
notes: paTCE with PSMA.5; also called AC3420; Y59G
B27: CD3.92 (bispecific antibody, V domains shown)
VH: B1 VH with T51I, Y62W
VL: B1 VL
notes: paTCE with PSMA.5; also called AC3421; Y59W
B28: CD3.93 (bispecific antibody, V domains shown)
VH: B1 VH with T51I, A63K
VL: B1 VL
notes: paTCE with PSMA.5; also called AC3422; A60K
B29: CD3.94 (bispecific antibody, V domains shown)
VH: B1 VH with T51I, A63P
VL: B1 VL
notes: paTCE with PSMA.5; also called AC3423; A60P
B30: CD3.95 (bispecific antibody, V domains shown)
VH: B1 VH with T51I, D68G
VL: B1 VL
notes: paTCE with PSMA.5; also called AC3424; D65G
B31: CD3.96 (bispecific antibody, V domains shown)
VH: B1 VH with T51I, Y82D
VL: B1 VL
notes: paTCE with PSMA.5; also called AC3425; Y79D
B32: CD3.97 (bispecific antibody, V domains shown)
VH: B1 VH with T51I, Y82G
VL: B1 VL
notes: paTCE with PSMA.5; also called AC3426; Y79G
B33: CD3.98 (bispecific antibody, V domains shown)
VH: B1 VH with T51I, Y82S
VL: B1 VL
notes: paTCE with PSMA.5; also called AC3427; Y79S
B34: CD3.99 (bispecific antibody, V domains shown)
VH: B1 VH with T51I, N87E
VL: B1 VL
notes: paTCE with PSMA.5; also called AC3428; N82bE
B35: CD3.100 (bispecific antibody, V domains shown)
VH: B1 VH with T51I, N87Q
VL: B1 VL
notes: paTCE with PSMA.5; also called AC3429; N82bQ
B36: CD3.101 (bispecific antibody, V domains shown)
VH: B1 VH with T51I, N87S
VL: B1 VL
notes: paTCE with PSMA.5; also called AC3430; N82bS
B37: CD3.102 (bispecific antibody, V domains shown)
VH: B1 VH with T51I, N87Y
VL: B1 VL
notes: paTCE with PSMA.5; also called AC3431; N82bY
B38: CD3.103 (bispecific antibody, V domains shown)
VH: B1 VH with A49G, T51I, Y58G, D68G, N87S
VL: B1 VL
notes: paTCE with PSMA.5; also called AC3432; A49G, Y52cG, D65G, N82bS
B39: CD3.104 (bispecific antibody, V domains shown)
VH: B1 VH with T51I
VL: B1 VL with L69Q
notes: paTCE with PSMA.5; also called AC3433; L67Q
B40: CD3.105 (bispecific antibody, V domains shown)
VH: B1 VH with T51I
VL: B1 VL with G70E
notes: paTCE with PSMA.5; also called AC3434; G68E
B41: CD3.106 (bispecific antibody, V domains shown)
VH: B1 VH with T51I
VL: B1 VL with L69D
notes: paTCE with PSMA.5; also called AC3435; L67D
B42: CD3.107 (bispecific antibody, V domains shown)
VH: B1 VH with T51I
VL: B1 VL with L68S
notes: paTCE with PSMA.5; also called AC3436; L66S
B43: CD3.108 (bispecific antibody, V domains shown)
VH: B1 VH with T51I
VL: B1 VL with L68K
notes: paTCE with PSMA.5; also called AC3437; L66K
B44: CD3.109 (bispecific antibody, V domains shown)
VH: B1 VH with T51I
VL: B1 VL with L68N
notes: paTCE with PSMA.5; also called AC3438; L66N
B45: CD3.110 (bispecific antibody, V domains shown)
VH: B1 VH with T51I
VL: B1 VL with L68T
notes: paTCE with PSMA.5; also called AC3439; L66T

biological target: T1, human CD3 epsilon (human, UniProt P07766 23-126, limits assumed); assay: Octet, crude lysate
T1 construct: also called huCD3e
T1 sequence (P07766 23-126 limits assumed): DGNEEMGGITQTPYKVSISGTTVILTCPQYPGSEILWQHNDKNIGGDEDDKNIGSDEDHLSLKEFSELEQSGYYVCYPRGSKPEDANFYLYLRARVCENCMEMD
From the text: To achieve this, Pool 1 was created, which included 74 paTCE molecules, each containing PSMA.5 and one of the 74 CD3.23 mutation variants. Single mutations were chosen based on analyses including CD3.23 PTE score analysis (using internal PTE algorithm v12) and structural analysis. Structural considerations included: possible contact disruption, anticipated steric clashes, side chain charge maintenance and possible pockets filling. Stability and affinity of the individually expressed molecules in the form of crude lysate was evaluated by Octet (ForteBio).

Q: B1 was tested. Which Kd did it give?
A: 425 nM

Q: Which Kd does the source give for B2 here?
A: 434 nM

Q: Which Kd does the source give for B3 here?
A: 4.8 nM

Q: For B4, which Kd is on record?
A: 51 nM

Q: Which Kd does the source give for B5 here?
A: 11.5 nM

Q: Which Kd does the source give for B6 here?
A: 3.8 nM

Q: Which Kd does the source give for B7 here?
A: 20.1 nM

Q: B8 was tested. Which Kd did it give?
A: 5.1 nM

Q: With B9 as the binder, how does the Kd read?
A: 33.1 nM

Q: B10 was tested. Which Kd did it give?
A: 11.1 nM

Q: Which Kd does the source give for B11 here?
A: 10.5 nM

Q: Which Kd does the source give for B12 here?
A: 575 nM

Q: Which Kd does the source give for B13 here?
A: 7.4 nM

Q: B14 was tested. Which Kd did it give?
A: 8.3 nM

Q: Which Kd does the source give for B15 here?
A: 11.3 nM

Q: For B16, which Kd is on record?
A: 6.1 nM

Q: For B17, which Kd is on record?
A: 7.8 nM

Q: With B18 as the binder, how does the Kd read?
A: 8.2 nM

Q: B19 was tested. Which Kd did it give?
A: 10.7 nM

Q: Which Kd does the source give for B20 here?
A: 939 nM

Q: Which Kd does the source give for B21 here?
A: 183 nM

Q: B22 was tested. Which Kd did it give?
A: 17.9 nM

Q: B23 was tested. Which Kd did it give?
A: 63.2 nM

Q: How did the Kd turn out when B24 was run?
A: 9.7 nM

Q: With B25 as the binder, how does the Kd read?
A: 7.2 nM

Q: Which Kd does the source give for B26 here?
A: 8.3 nM

Q: B27 was tested. Which Kd did it give?
A: 37.2 nM

Q: How did the Kd turn out when B28 was run?
A: 8 nM

Q: Which Kd does the source give for B29 here?
A: 8.2 nM

Q: With B30 as the binder, how does the Kd read?
A: 5.4 nM

Q: For B31, which Kd is on record?
A: 9.8 nM

Q: B32 was tested. Which Kd did it give?
A: 121 nM

Q: With B33 as the binder, how does the Kd read?
A: 9.6 nM

Q: For B34, which Kd is on record?
A: 5.9 nM

Q: For B35, which Kd is on record?
A: 7.1 nM

Q: B36 was tested. Which Kd did it give?
A: 4.8 nM

Q: B37 was tested. Which Kd did it give?
A: 5.2 nM

Q: For B38, which Kd is on record?
A: 11.4 nM

Q: For B39, which Kd is on record?
A: 4.6 nM

Q: Which Kd does the source give for B40 here?
A: 4.9 nM

Q: B41 was tested. Which Kd did it give?
A: 6.1 nM

Q: With B42 as the binder, how does the Kd read?
A: 7.3 nM

Q: For B43, which Kd is on record?
A: 3.2 nM

Q: How did the Kd turn out when B44 was run?
A: 8.3 nM

Q: B45 was tested. Which Kd did it give?
A: 8.9 nM

biological target: T1, human CD3 epsilon; assay: Octet, crude lysate; remark: another data set of the same source
Method: Pool 2 consisted of paTCE molecules each containing PSMA.262 and one of 64 CD3.23 mutation combination variants. Stability and affinity of the individually expressed molecules in the form of crude lysate was evaluated by Octet. […] The binding of these anti-CD3 molecules (CD3.227, CD3.228, CD3.229 and CD3.230) to human and cynomolgus CD3 was measured by Octet and the Tm was measured by Differential Scanning Fluorimetry. All variants were paired with PSMA.262 except for CD3.23 which was paired with PSMA.5.

Q: With B38 as the binder, how does the Kd read?
A: 13.5 nM
